Measured values published in patent publication US20150004637A1, “SYSTEMS AND METHODS FOR IMAGING AT HIGH SPATIAL AND/OR TEMPORAL PRECISION” (President and Fellows of Harvard College, priority 2011, published 2015).
“Also recorded” adds a separate entry of the source.

Experiments:
[1] = system: cultured mouse hippocampal neurons; experiment: Optopatch: optical stimulation and recording in neurons; assay type: cell-based; settings: red light 230 W/cm^2, 640 nm
Text: In another example, a genetic construct termed “Optopatch” was used to provide simultaneous optical stimulation and recording from neurons. One embodiment of the Optopatch construct consisted of a bicistronic vector for co-expression of channelrhopsin 64 (ChR64)-mOrange II and archaerhodopsin 3 (Arch)-eGFP. This construct is depicted in FIG. 18A. The abbreviations used in the figure may be interpreted as follows. ss: Signaling sequence designed to improve the trafficking of Arch to the plasma membrane; Arch: Archaerhodopsin 3; eGFP: Enhanced green fluorescent protein; ER2: Endoplasmic reticulum export motif, designed to improve the trafficking of Arch to the plasma membrane; P2A: porcine teschovirus-1 2A sequence, a ribosomal skip-site leading to expression of two proteins from a single mRNA transcript; ChR64: Channelrhodopsin 64, a blue light-activated ion channel; mOr2: mOrange 2 fluorescent protein. […]
Whole-field illumination with pulses of blue light (20 mW/cm^2, 10 ms, 488 nm, repeated at 10 Hz) led to flashes of red fluorescence (em: 660-760 nm), detected on a high speed EMCCD camera. […] The optically-recorded fluorescence waveform coincided closely with the electrically recorded waveform on a single-trial basis (as shown in FIG. 18C), with a noise in the optically recorded voltage of 1.1 mV at a 1 kHz acquisition rate.

[2] = system: cultured rat hippocampal neurons; experiment: Optical recording of action potentials in cultured neurons; assay type: cell-based
Experimental: Arch was tested as a voltage indicator in cultured rat hippocampal neurons, using viral delivery (Methods 10-11). […] Individual spikes were accompanied by clearly identifiable increases of whole-field fluorescence (FIG. 11B). Preferentially weighting pixels whose intensity co-varied with the whole-field fluorescence led to an about 74% improvement in SNR (FIG. 11C). This training procedure made no use of the electrical recording. Training the pixel-weighting algorithm on the electrical recording led to a further 5% increase in SNR. (FIG. 11D).
(11) Neuronal cell culture. E18 rat hippocampi were purchased from BrainBits and mechanically dissociated in the presence of 1 mg/mL papain (Worthington) before plating at 5,000 to 30,000 cells per dish on poly-L-lysine and Matrigel-coated (BD Biosciences) glass-bottom dishes. […] Cells were incubated in N+ medium (100 mL Neurobasal medium, 2 mL B27 supplement, 0.5 mM glutamine, 25 micromolar glutamate, penicillin-streptomycin) for 3 hours. An additional 300 microliter virus medium was added to the cells and incubated overnight, then brought to a final volume of 2 mL N+ medium. After two days, cells were fed with 1.5 mL N+ medium. Cells were fed with 1 mL N+ medium without glutamate at 4 DIV, and fed 1 mL every 3-4 days after. Cells were allowed to grow until 10-14 DIV. […]
Whole-cell current clamp recordings were obtained from mature neurons under the same conditions used for HEK cells recordings. Series resistance and pipette capacitance were corrected. Only neurons having resting potentials between −50 and −70 mV were used in the analysis.
(12) Spike sorting. A spike identification algorithm was developed that could be applied either to electrically recorded V(t) or to optically determined VFL(t). The input trace was convolved with a reference spike. Sections of the convolved waveform that crossed a user-defined threshold were identified as putative spikes. Multiple spikes that fell within 10 ms (a consequence of noise-induced glitches near threshold) were clustered and identified as one.

B1: Archaerhodopsin 3 (protein)
chain: MDPIALQAGYDLLGDGRPETLWLGIGTLLMLIGTFYFLVRGWGVTDKDAREYYAVTILVPGIASAAYLSMFFGIGLTEVTVGGEMLDIYYARYADWLFTTPLLLLDLALLAKVDRVTIGTLVGVDALMIVTGLIGALSHTAIARYSWWLFSTICMIVVLYFLATSLRSAAKERGPEVASTFNTLTALVLVLWTAYPILWIIGTEGAGVVGLGIETLLFMVLDVTAKVGFGFILLRSRAILGDTEAPEPSAGADVSAAD
modifications: Halorubrum sodomense
notes: Microbial rhodopsin from Halorubrum sodomense, light-driven proton pump used as fluorescent voltage indicator; experiments used an Arch-eGFP fusion
For B1, which “outward photocurrent mediated by Arch” value ([1]; n=6 cells) is on record?
The value was 34±7 pA.

What about the “hyperpolarization of cells by Arch photocurrent” value ([1]; n=8 cells) of the same molecule?
Its value is 6.1±1.1 mV.

What about the “optical signal-to-noise ratio of single electrically triggered action potentials” value [2] of the same molecule?
Its value is “greater than 10”.

And the “increase in fluorescence after addition of supplemental retinal” value ([2]; 10 μM retinal, over 30 minutes, neuron depolarized with CCCP)?
The value was 30-60%.

What about the “signal-to-noise ratio in the fluorescence (spike amplitude:baseline noise)” value ([2]; 2 kHz frame rate, single trial) of the same molecule?
The value was “about 10.5”.

And the “light-induced outward photocurrent in neurons” value ([2]; I=1800 W/cm^2, total internal reflection mode)?
The value was “about 10 pA”.

What about the “shift of resting potential by photocurrent” value ([2]; current-clamp, I=1800 W/cm^2) of the same molecule?
Its value is “up to −20 mV”.

And the “false-positive rate of spike identification” value ([2]; n=269 spikes)?
The value was 0.7%.

And the “spikes correctly identified by spike-finding algorithm” value ([2]; n=269 spikes, versus simultaneously recorded membrane potential)?
The value was 99.6%.

What about the “r.m.s. deviation between fluorescence and voltage” value ([2]; pixel weights from correlation to electrophysiology data) of the same molecule?
Its value is 4.0 mV.

What about the “r.m.s. deviation of fluorescence from electrophysiology data” value ([2]; pixel weights from correlation to whole-field intensity) of the same molecule?
The value was 4.2 mV.

And the “r.m.s. deviation of fluorescence from electrophysiology data” value ([2]; whole-field fluorescence, single trial, 500 frames/s)?
Its value is 7.3 mV.

B2: Arch D95N: Archaerhodopsin 3 with aspartic acid 95 mutated to asparagine; non-pumping voltage indicator (protein, UniProt P96787 7-258, looked up, variant D95N)
Archaerhodopsin-3: QAGYDLLGDGRPETLWLGIGTLLMLIGTFYFLVRGWGVTDKDAREYYAVTILVPGIASAAYLSMFFGIGLTEVTVGGEMLDIYYARYANWLFTTPLLLLDLALLAKVDRVTIGTLVGVDALMIVTGLIGALSHTAIARYSWWLFSTICMIVVLYFLATSLRSAAKERGPEVASTFNTLTALVLVLWTAYPILWIIGTEGAGVVGLGIETLLFMVLDVTAKVGFGFILLRSRAILGDTEAPEPSAGADVSAAD
For B2, which “effect of illumination on membrane potential / spiking in neurons” value ([2]; I=1800 W/cm^2, λ=640 nm) is on record?
The value was “did not perturb membrane potential; also recorded: no effect of illumination on spiking or resting potential”.
